The target of experiment [1] is human FcRn (human) (UniProt P55899). Nature of the experiment: AlphaScreen competition, human FcRn (n=1); displaced: biotinylated control mAb B21M WT IgG1 (m27); pH 6.0.
The target of experiment [2] is human FcγRI (human) (UniProt P12314). Nature of the experiment: AlphaScreen competition, human FcγRI (n=1); displaced: biotinylated control mAb B21M hIgG1 AlaAla; pH 7.2. (In general: Alpha assays give light when donor and acceptor beads are brought close together.)
Chain of human FcγRI (human) (P12314 16-292 limits assumed): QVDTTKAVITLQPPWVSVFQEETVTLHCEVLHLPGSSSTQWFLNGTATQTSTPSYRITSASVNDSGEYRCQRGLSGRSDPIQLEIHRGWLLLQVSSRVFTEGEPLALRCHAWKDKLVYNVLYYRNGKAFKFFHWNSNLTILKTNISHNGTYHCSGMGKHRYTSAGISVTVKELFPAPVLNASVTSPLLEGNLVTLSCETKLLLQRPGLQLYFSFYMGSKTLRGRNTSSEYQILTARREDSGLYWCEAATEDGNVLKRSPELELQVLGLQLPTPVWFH
Experiment [3] has as its target recombinant human IL1RAP ECD (human) (UniProt Q9NPH3). Nature of the experiment: SPR (ProteOn).

Several values for one entry are separate records, joined by “and”; a condition that tells them apart may be missing. Equal entries are not always repeated.

Chain of recombinant human IL1RAP ECD (human) (Q9NPH3 other isoform, or with tags, fused parts or gaps): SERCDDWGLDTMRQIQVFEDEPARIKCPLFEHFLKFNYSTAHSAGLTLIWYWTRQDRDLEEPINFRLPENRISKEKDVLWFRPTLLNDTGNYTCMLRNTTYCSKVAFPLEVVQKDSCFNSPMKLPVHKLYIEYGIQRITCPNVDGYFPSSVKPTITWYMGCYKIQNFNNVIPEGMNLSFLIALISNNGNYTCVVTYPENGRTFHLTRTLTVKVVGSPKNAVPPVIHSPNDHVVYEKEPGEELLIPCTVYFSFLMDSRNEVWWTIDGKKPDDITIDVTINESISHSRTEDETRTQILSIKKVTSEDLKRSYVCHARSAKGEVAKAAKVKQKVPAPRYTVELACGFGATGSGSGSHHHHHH
Chain of human FcRn (human) (P55899 24-297 limits assumed, form in doubt, chain 1 of 2): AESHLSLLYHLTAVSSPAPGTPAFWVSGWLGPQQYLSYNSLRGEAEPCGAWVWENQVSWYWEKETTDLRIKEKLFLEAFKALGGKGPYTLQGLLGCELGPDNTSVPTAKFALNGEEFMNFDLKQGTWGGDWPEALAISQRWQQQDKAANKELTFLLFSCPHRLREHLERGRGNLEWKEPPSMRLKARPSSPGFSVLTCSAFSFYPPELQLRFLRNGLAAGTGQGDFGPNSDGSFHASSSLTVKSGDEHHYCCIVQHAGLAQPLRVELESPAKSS
Chain of human FcRn (human) (chain, as listed by the source limits assumed, form in doubt, chain 2 of 2): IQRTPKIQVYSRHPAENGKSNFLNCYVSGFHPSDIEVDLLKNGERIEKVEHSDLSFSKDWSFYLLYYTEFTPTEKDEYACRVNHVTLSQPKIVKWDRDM

“Human IgG4-PAA isotype control (antibody)” displayed an IC50 (read off the curve) in experiment [1] of 200 nM.

wild type hIgG1 (antibody): the figures for the IC50 (read off the curve) in experiment [2] and in experiment [1] were 3 nM and 90 nM, respectively.

One may read the Kd as the concentration at which binding is half-saturated. In general, koff refers to the first-order rate constant of dissociation. By kon is commonly meant a measure of how fast the partners come together. On to “anti-human/cyno IL1RAP, mouse IgG1, R&D #MAB676 (antibody)”, for which, in experiment [3], the dissociation constant (Kd) was 1.42 nM and 1.21 nM; the koff was 0.000369 s⁻¹ and 0.000336 s⁻¹; the kon was 260000 M⁻¹ s⁻¹ and 277000 M⁻¹ s⁻¹.

The record behind these values is patent US20190270826A1.
